Target: Clostridium perfringens archaeal-type phosphoenolpyruvate carboxylase (PepcA) (Clostridium perfringens) (UniProt Q8XLE8)
Assay: AUC

Substance: Clostridium perfringens archaeal-type phosphoenolpyruvate carboxylase (PepcA) (from UniProt Q8XLE8 1-537) (enzyme)
- percent of the total concentration as dimer: 30%
